The results in this text go back to doi:10.1101/2022.07.10.499282.

The target in this experiment is CXCL4 (platelet factor 4, PF4) (human). The experiment is described as follows: AUC.

Turning to “CXCL4 (platelet factor 4, PF4) (natural protein)”, the stoichiometry N came out at 4.
